Publication doi:10.1101/2021.12.01.470822
pKd: −log10 of the molar value.

Target: ABD1 of PLS2 (human) (UniProt P13796)
Test: fluorescence polarisation

Sequence of ABD1 of PLS2 (human) (P13796 98-375): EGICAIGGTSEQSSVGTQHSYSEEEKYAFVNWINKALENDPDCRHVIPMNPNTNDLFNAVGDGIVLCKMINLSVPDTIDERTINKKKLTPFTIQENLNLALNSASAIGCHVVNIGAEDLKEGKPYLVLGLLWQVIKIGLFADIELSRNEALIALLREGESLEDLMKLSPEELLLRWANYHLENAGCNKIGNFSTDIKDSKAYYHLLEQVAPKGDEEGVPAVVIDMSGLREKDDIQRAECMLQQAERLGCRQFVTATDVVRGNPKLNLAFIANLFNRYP

## ABD2 of PLS2 with S406E (from UniProt P13796 1-627) (domain or fragment)
  pKd: 5.70
